Test results reported in US20220313789A1, “TARGETING MELANOCORTIN 3 RECEPTOR FOR TREATMENT/PREVENTION OF EATING, METABOLISM, AND/OR EMOTIONAL DISORDERS” (The Regents of the University of Michigan, priority 2019, published 2022).
Entries after “also recorded” stand apart in the source; their conditions may differ. Values belong to the substance of their own block, whether it stands above or below them. Bridge positions count the residues as written; N and C are the ends. Square brackets hold non-standard residues; d marks the D form. d2Nal = N[C@H](Cc1ccc2ccccc2c1)C(=O)O; Nle = CCCC[C@H](N)C(=O)O

Key:
AgRP neurons = assay: Feeding after MC3R agonist with chemogenetic (hM4Di) inhibition of AgRP neurons; format: in vivo, mice
Method: FIG. 7. […] Either saline or CNO (1 mg/kg, i.p.) was administered fifteen minutes prior to i.c.v. injections. […] Data represented as mean+/−s.e.m.
A and B: Schematic of experimental strategy to express inhibitory DREADD virus in hypothalamic AgRP neurons (A) and representative image of DREADD transduced AgRP neurons (B). Scale bar, 200 um. C: Food intake following administration of C18 in the presence of saline or CNO (0.1 mg/kg, i.p.). […] D: RNAscope analysis of MC3R expression in WT and AgRP-MC3R KI mice. […] Scale bar, 500 um.
To inhibit AgRP neurons, the arcuate nucleus of AgRP-Cre mice was targeted with stereotaxic viral injections of Cre-dependent AAV viral vectors expressing the chemogenetic inhibitor hM4Di (FIG. 7).

MC3R KO mice = assay: Feeding after i.c.v. administration in MC3R KO mice; format: in vivo
Method: FIG. 13. […] Data shown as mean+/−s.e.m. Panels A and B analyzed with Student's paired t-test. n=9 mice for panels A and B.
B: 24-hour food intake following administration of vehicle (aCSF) or C18 to WT mice. […] C: Change in BW following injection of vehicle or C18 (5 ug). D and E: Cumulative food intake (D) and 24-hour food intake (E) following C18 or vehicle administration in MC3R KO mice. […] F: Cumulative food intake following administration of the MC3R antagonist C11 or vehicle. […] G: 24-hour food intake in WT mice following administration of C11. H: Change in BW following injection of vehicle or C11 (5 ug). I and J: Food intake following i.c.v. injection of vehicle (DMSO, 500 nl) or C11 (5 ug, 500 nl) in MC3R KO mice. […] Data represents mean+/−s.e.m. […] Panels B, C, G, H, and J analyzed with unpaired Student's t-test. n=7 mice and n=8 mice for vehicle and C18 groups in panels A-C. n=19 mice for panels F and G. n=6 mice for vehicle and n=8 mice for C11 group in panel H. n=12 mice for vehicle and C18 group in panels D and E. n=8 mice for vehicle and C11 groups in panels I and J.
(§1) For central administration of MC3R agonist compounds we first administered vehicle injections (500 nl DMSO) for 2-4 consecutive days to habituate mice to handling and injection. […] Body weight was measured daily immediately prior to injections.

MC3R [1] = target: T1, MC3R (Mus musculus, UniProt P33033); assay: Open field test; format: in vivo, mice
T1 construct: from tissue; host or cells: living mice (C57/BL6J background), central nervous system / hypothalamus
Method: (§2) Anxiety behavioral assays were performed in the following order with 2-4 days separated between each anxiety assay: elevated plus maze, open field test, novelty suppressed feeding test. Behavioral assays were performed during the light cycle between 10 am-5 pm. Open field and elevated plus maze testing was performed in ad libitum fed mice with one exception.
Open field tests were performed as previously described (Refs. 55-57; herein incorporated by reference in their entireties). Mice were placed in the corner of a 50 cm×50 cm open field chamber. The center of the arena was marked as the 25 cm×25 cm area in the center of the open field. Exploratory activity was recorded for five minutes using ANYmaze software (Stoelting). Entries to the center, time in the center, distance in the center, and total distance traveled were automatically recorded with video tracking software. For PG992 experiments, mice were randomly assigned to receive either vehicle or PG992 injections. One week later the order of treatments was reversed such that each mouse received both vehicle and PG992 treatment in random order. For DREADD mediated assays, mice were administered CNO on the day of testing. Differences in open field activity between DREADD transduced mice and WT littermates were compared on testing day in response to CNO treatment. Similarly, MC3R KO and WT mice were testing in the open field on the same day in random order and differences in exploratory activity were calculated as previously described.

MC3R [2] = target: T1, MC3R; assay: Elevated plus maze; format: in vivo, mice
Method: as §2
To perform elevated plus maze tests mice were initially placed into the closed arm of the elevated plus maze arena. The arena consisted of 2 50 cm long arms. One arm was enclosed by walls while the other arm was open. Activity in the maze was recorded for five minutes using animal tracking software (ANYmaze, Stoelting). Latency to enter the open arms, total distance traveled, entries to open arms, time in open arms, and distance traveled in the open arms was automatically calculated using tracking software. Treatment schedules for the elevated plus maze were identical to those described for the open field test.

MC3R [3] = target: T1, MC3R; assay: Novelty suppressed feeding test; format: in vivo, mice; details: i.c.v., NSF test
Method: as §2
Prior to testing, mice were fasted overnight (6 pm-10 am). NSF testing was performed in the open field arena described above. Briefly, a single pellet of food (3-4 grams) was placed in the center of the open field. Mice were placed in the corner of the open field and their activity was automatically scored for ten minutes using animal tracking software. Latency to eat the food was manually recorded during testing. Feeding was scored as five consecutive seconds of chewing on the food.

MC3R [4] = target: T1, MC3R; assay: MC3R agonist feeding assays (food intake, body weight) in WT mice; format: in vivo
Method: Clozapine-N-Oxide (CNO) was purchased from Enzo Life Sciences. On the day of experiments fresh stock CNO (1 mg/0.1 ml) was prepared in water. CNO was administered via i.p. injections (200 ul Saline; 1 mg/kg). […] (5 ug; 500 nl DMSO).
Behavioral assays were performed on ad libitum fed mice. Mice were single caged for at least one week prior to starting feeding assays. Feeding assays were performed during the light period.
For peripheral administration of MC3R agonist compounds, mice were first habituated to vehicle injections (i.p.; saline in 10% DMSO; 200 ul) for 2-4 consecutive days. Following habituation and consecutive days of stable food intake in response to vehicle injections, agonist compounds were administered (i.p.; 10 mg/kg; saline in 10% DMSO). Food intake was measured following drug or vehicle administration by carefully removing food from the food hopper and weighing on a scale. Cages were changed daily during acute feeding assays to prevent spillage of food from the food hopper.
as §1

[5] = i.c.v. 5 ug in 500 nl DMSO vs vehicle
[6] = 5 ug, i.c.v., elevated plus maze

T1 sequence (P33033 whole entry): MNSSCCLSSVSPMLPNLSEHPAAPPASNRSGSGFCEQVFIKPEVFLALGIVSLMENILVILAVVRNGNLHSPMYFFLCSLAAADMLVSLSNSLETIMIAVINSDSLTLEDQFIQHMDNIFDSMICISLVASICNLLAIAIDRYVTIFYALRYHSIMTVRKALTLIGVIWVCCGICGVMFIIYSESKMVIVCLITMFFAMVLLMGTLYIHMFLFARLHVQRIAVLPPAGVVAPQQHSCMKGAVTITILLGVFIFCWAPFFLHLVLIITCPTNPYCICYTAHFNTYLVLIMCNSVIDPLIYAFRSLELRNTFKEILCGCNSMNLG

- anxiolytic activity (MC3R [1]; ICV, elevated plus maze, and novelty suppressed feeding assay): clear anxiolytic activity
- total time eating (MC3R [3]): increased total time eating
Substance: Ac-Nle-c[Asp-Trp-Pro-DNal(2′)-Arg-Trp-Lys]-NH2 (Ac-[Nle]DWP[d2Nal]RWK-NH2; lactam 2-8) [PG992]
- PG992 induced stimulation of food intake under AgRP neuron inhibition (AgRP neurons; CNO (1 mg/kg, i.p.) before PG992 5 ug i.c.v., hM4Di in AgRP neurons): significantly reduced the ability of PG992 to stimulate feeding; also recorded: significantly reduced in the presence of AgRP neuron inhibition
- 4-hour, 8-hour and 24-hour food intake (AgRP neurons; PG992 5 ug i.c.v., saline or CNO (1 mg/kg, i.p.) fifteen minutes before): robustly stimulated food intake at 4 hours, 8 hours, and 24 hours; also recorded: increased food intake following both saline and CNO injections at all time-points
- 24-hour food intake (MC3R KO mice; [5]): No significant difference in 24-hour food intake
- Acute food intake (MC3R KO mice; [5]): No significant difference in food intake
- body weight (MC3R KO mice; icv): no activity on food intake or body weight
- food intake (MC3R KO mice; icv): no activity on food intake or body weight; also recorded: No effect on food intake
- distance traveled in the center (MC3R [1]; 5 ug, i.c.v.): increased the distance traveled in the center; also recorded: increased distance traveled in the center
- entries in the center (MC3R [1]; 5 ug, i.c.v.): increased entries to the center; also recorded: increased distance traveled in the center and entries in the center
- latency to enter the center (MC3R [1]; 5 ug, i.c.v.): decreased the latency to enter the center; also recorded: reduced latency to enter the center of the arena
- total distance traveled (MC3R [1]; 5 ug, i.c.v.): Total distance traveled was also increased
- Entries to the open arms (MC3R [2]; [6]): trended towards being higher; also recorded: entered the open arms more frequently
- distance traveled in the open arms (MC3R [2]; [6]): increasing distance traveled in the open arms; also recorded: traveled more distance in the open arms
- latency to enter the open arms (MC3R [2]; [6]): decreasing latency to enter the open arms; also recorded: entered the open arms faster
- total distance traveled (MC3R [2]; [6]): increased total distance traveled in the elevated plus maze
- distance traveled (MC3R [3]): without significantly effecting total distance traveled; also recorded: did not affect distance traveled
- latency to eat (MC3R [3]): decreased latency to feed; also recorded: reduced latency to eat
- weight gain (MC3R [4]; 3 days of treatment): 8%
- 24 h food intake (MC3R [4]; PG990 series of peptides, route not given in the sentence): increases 24 h food intake
- stimulation of food intake (MC3R [4]; central injection (i.c.v.), 5 μg): ~50%
- 24-hour food intake compared with chemogenetic (DREADD) neuron activation (MC3R [4]; i.c.v. PG992 vs CNO/hM3Dq): increased 24-hour food intake to a greater extent than chemogenetic activation of AgRP neurons; also recorded: even more potent inducer of 24 h food intake than DREADD activation of MC3R ARC neurons; also recorded: produced a greater change in 24-hour food intake than AgRP neuron activation
- Feeding in response to central administration (MC3R [4]; i.c.v., 5 ug in 500 nl DMSO, vs vehicle): acutely stimulated feeding at all measured time-points
- Food intake at 4 and 24 hours (MC3R [4]; i.c.v., 5 ug, single injection): increased food intake at both 4 hours and 24 hours post injection
- increase in body weight each treatment day (MC3R [4]; once daily i.c.v. injections): 2-3%
- Daily food intake (MC3R [4]; once daily i.c.v. injections (5 ug)): increased daily 24-hour food intake on each day of treatment
- duration of food intake stimulation (MC3R [4]; single i.c.v. injection): at least 24 hours

Substance: Ac-Arg-Arg-(pI)DPhe-Tic-NH2 [compound 18]
- Food intake in the presence of saline or CNO (AgRP neurons; C18, CNO 0.1 mg/kg, i.p., inhibitory DREADD in AgRP neurons): increased food intake following administration of saline but not following CNO mediated inhibition of AgRP neurons
- Food intake, cumulative/acute and 24-hour (MC3R KO mice; i.c.v. 5 ug vs vehicle): No difference in food intake was detected following C18 administration

- anxiety in the elevated plus maze assay (MC3R [2]; single peripheral injection): trend towards reduction of anxiety
Substance: H-Tyr-Val-Met-Gly-His-Phe-Arg-DTrp-Asp-Arg-Phe-Gly-OH [D-Trp8-γ-MSH]
